The results in this text go back to PMC6433865, “The cochaperone CHIP marks Hsp70- and Hsp90-bound substrates for degradation through a very flexible mechanism” (Scientific Reports, 2019).

In one test the target is T1, Hsp70 (human (by the printed Entrez Gene code), UniProt P0DMV8 1-641).
T1 construct: Hsp70, Entrez Gene code 3303, cloned in pQE-30; Removal of the His tag is told only for CHIP, UbcH5a, Bag1s and p53DBD, not for Hsp70; source: E. coli, expressed at 16 °C overnight, purified (Ni-NTA, Superdex 200)
The test is described as follows: cryo-EM structure; ternary complexes after GraFix, vitrified; Titan Krios 300 kV (Hsp70:p53-TMGST:CHIP, 15 Å) or Talos Arctica 200 kV (Hsp90:p53-TMGST:CHIP, 13 Å); atomic structures docked. The note with it: both partners purified.

The target of a further test is T2, Hsp90 (human, UniProt P07900 1-732).
T2 construct: Homodimer; also called hHsp90; source: E. coli, induced at 30 °C (4 h), purified (Ni-NTA, Superdex 200)
In words: negative-stain electron microscopy, 3D reconstruction; complexes stabilised and isolated by GraFix (10-30% glycerol gradient, 0.15% glutaraldehyde), stained with 2% uranyl acetate, JEOL JEM1010 at 80 kV; atomic structures docked into 19-26 Å volumes. The note with it: both partners purified.

T1 sequence (P0DMV8 whole entry): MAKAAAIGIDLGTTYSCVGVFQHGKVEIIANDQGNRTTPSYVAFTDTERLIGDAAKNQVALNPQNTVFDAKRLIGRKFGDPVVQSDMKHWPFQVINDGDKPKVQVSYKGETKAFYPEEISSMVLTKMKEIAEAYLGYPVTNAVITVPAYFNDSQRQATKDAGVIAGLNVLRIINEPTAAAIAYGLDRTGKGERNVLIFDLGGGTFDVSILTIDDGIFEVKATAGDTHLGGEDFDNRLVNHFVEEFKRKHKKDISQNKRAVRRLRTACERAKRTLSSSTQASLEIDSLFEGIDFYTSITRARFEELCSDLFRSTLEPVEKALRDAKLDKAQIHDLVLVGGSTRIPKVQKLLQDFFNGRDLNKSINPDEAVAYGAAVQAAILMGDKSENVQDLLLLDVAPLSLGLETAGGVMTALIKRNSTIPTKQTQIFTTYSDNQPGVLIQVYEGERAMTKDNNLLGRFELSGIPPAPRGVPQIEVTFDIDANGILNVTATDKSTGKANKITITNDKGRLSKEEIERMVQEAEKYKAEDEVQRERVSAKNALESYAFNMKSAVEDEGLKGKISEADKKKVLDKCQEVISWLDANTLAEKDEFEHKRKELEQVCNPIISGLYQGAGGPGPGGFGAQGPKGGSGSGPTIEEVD

B1: C terminus of Hsc70-interacting protein (CHIP) (enzyme, human, UniProt Q9UNE7 1-303, looked up)
chain: MKGKEEKEGGARLGAGGGSPEKSPSAQELKEQGNRLFVGRKYPEAAACYGRAITRNPLVAVYYTNRALCYLKMQQHEQALADCRRALELDGQSVKAHFFLGQCQLEMESYDEAIANLQRAYSLAKEQRLNFGDDIPSALRIAKKKRWNSIEERRIHQESELHSYLSRLIAAERERELEECQRNHEGDEDDSHVRAQQACIEAKHDKYMADMDELFSQVDEKRKKRDIPDYLCGKISFELMREPCITPSGITYDRKDIEEHLQRVGHFDPVTRSPLTQEQLIPNLAMKEVIDAFISENGWVEDY
notes: human CHIP (hCHIP), Entrez Gene code 10273, cloned in pPROEX HTa; Homodimer, seen as an asymmetric triangular dimer in all reconstructions; also called hCHIP; source: E. coli, induced at 30 °C (4 h), purified (Ni-NTA, TEV cleavage, second Ni-NTA, Superdex 200)
Take B1: the binding result with Hsp70 and with Hsp90 was “binds” throughout.
